# Measured values reported in patent US20240199695A1 (TRANSFERT PLUS S E C, published 2024).
# Non-standard residues stand in square brackets, D forms with d. No end group written: not given here. *: point of attachment. curcumin = curcumin, a phytochemical attached to the lysine side chains; Biotin = O=C1N[C@H]2[C@H](CS[C@H]2CCCCC(=O)*)N1; Nle = CCCC[C@H](N)C(=O)O
# T1: sortilin expressed on cancer cells (SKOV3, ES-2 ovarian cancer cells) (UniProt Q99523 78-831, limits assumed)
# T1 sequence (looked up): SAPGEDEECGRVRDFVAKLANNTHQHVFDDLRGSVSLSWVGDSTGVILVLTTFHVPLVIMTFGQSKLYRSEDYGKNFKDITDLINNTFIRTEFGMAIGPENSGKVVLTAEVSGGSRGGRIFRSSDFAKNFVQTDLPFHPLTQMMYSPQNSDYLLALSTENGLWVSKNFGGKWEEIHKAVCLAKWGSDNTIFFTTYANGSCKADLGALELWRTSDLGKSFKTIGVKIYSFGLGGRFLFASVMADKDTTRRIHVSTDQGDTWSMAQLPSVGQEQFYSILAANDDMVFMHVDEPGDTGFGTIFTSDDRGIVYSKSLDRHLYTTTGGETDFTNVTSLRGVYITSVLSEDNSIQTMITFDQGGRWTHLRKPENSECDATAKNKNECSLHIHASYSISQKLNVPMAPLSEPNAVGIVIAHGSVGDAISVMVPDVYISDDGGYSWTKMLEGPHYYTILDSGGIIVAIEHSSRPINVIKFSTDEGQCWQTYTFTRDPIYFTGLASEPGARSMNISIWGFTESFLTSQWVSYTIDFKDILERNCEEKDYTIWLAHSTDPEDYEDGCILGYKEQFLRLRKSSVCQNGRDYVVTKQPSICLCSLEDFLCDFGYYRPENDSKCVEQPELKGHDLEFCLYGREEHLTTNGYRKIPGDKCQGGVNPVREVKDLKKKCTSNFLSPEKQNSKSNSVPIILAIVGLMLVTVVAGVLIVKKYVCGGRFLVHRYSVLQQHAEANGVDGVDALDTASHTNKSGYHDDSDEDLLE
# T2: soluble form of sortilin (UniProt Q99523 78-755, limits assumed)
# T2 construct: also called soluble sortilin; receptor sortilin
# T2 sequence (looked up): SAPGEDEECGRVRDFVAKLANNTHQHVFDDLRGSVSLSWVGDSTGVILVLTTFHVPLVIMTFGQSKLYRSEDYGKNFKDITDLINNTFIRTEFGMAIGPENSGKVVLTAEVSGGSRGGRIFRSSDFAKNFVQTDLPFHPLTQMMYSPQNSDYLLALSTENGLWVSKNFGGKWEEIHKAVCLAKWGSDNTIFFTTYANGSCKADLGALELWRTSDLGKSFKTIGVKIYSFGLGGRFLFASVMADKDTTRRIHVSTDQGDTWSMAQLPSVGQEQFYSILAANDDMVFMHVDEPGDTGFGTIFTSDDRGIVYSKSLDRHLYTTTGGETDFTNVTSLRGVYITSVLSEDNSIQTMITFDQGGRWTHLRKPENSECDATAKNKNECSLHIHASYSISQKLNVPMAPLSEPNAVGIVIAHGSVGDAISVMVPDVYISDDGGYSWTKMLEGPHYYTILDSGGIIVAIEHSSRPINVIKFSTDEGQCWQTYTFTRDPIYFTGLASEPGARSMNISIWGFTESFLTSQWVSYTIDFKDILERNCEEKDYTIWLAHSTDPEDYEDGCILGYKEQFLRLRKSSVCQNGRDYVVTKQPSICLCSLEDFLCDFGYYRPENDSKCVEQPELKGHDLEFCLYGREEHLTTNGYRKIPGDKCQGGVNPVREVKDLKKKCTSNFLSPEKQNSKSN
# B1: KBP-103: IKLSGGVQAKAGVINMFKSESYK(Biotin) (peptide)
# peptide: IKLSGGVQAKAGVINMFKSESYK(Biotin)
# notes: Immobilised on a streptavidin sensor chip in the SPR assay; also called biotinylated-peptide; Katana peptide
# Experiments:
# [1] = target: T1, sortilin expressed on cancer cells …
# [2] = target: T1, sortilin expressed on cancer cells …; remark: listed apart in the source
# [3] = target: T1, sortilin expressed on cancer cells …; remark: listed apart in the source
# [4] = target: T1, sortilin expressed on cancer cells …; remark: listed apart in the source
# soluble form of sortilin = target: T2, soluble form of sortilin; experiment: SPR; biotinylated KBP-103 on a streptavidin chip, soluble sortilin injected
# Experimental: Biotinylated Katana peptide was immobilized on a streptavidin sensor chip. A. Soluble sortilin was then injected over the immobilized peptide. The surface plasmon resonance signal was then monitored over time.
# Surface plasmon resonance (SPR) was first used to investigate whether these peptides could be recognized by sortilin. For this approach, biotin was added on the C-terminal end of the Katana-Biopharma peptide during peptide synthesis. The biotinylated-peptide (KBP-103) was then immobilized on a streptavidin sensor chip using recommended procedures from the manufacturer. Increasing concentrations of a soluble form of sortilin was then injected over the sensor chip. Interactions between immobilized KBP-103 and the receptor sortilin was then monitored in real time. A representative interaction curve is shown in FIG. 1, and from the sensorgram curves the affinity constant as well as Ka and Kd were determined and are indicated in Table 2. Affinity constants (KD, […]) were extracted from various injections using the BIA evaluation software.
# [5] = target: T1, sortilin expressed on cancer cells …; experiment: cell-based or functional assay
molecule,measurement,setting,value
Neurotensin (from UniProt P30990 151-163) (peptide),decrease of the late apoptosis induced by 2 uM KBA-105 in SKOV3/Luc cells by 10 uM NT,[1],47.5%
same,decrease of the late apoptosis induced by 2 uM KBA-201 in SKOV3 cells by 10 uM NT,[2],45.5%
same,inhibition of KBC106 fluorescence intensity (RFU) in ES-2 cells by neurotensin (bar NT) [continued) C],[3],52%
Progranulin (from UniProt P28799 18-593) (ligand),decrease of the late apoptosis induced by 2 uM KBA-201 in SKOV3 cells by 1.2 nM progranulin,[2],55%
same,inhibition of KBB106 accumulation (% of control) in ovarian cancer cells by progranulin,[4],52%
same,inhibition of KBC106 fluorescence intensity (RFU) in ES-2 cells by progranulin [continued) C],[3],81.5%
B1,Kd,soluble form of sortilin,25.5 nM
same,koff,soluble form of sortilin,0.0174 s⁻¹
same,kon,soluble form of sortilin,683000 M⁻¹ s⁻¹
Ac-GVRAK(curcumin)AGVRN[Nle]FK(curcumin)SESY [KBC-106 (2:1): Acetyl-GVRAK(curcumin)AGVRN(Nle)FK(curcumin)SESY],relative fluorescence (RFU) of ES-2 cells after KBC106 against unconjugated curcumin (live imaging),[5],2.3 fold
